# ± gives the uncertainty stated by the source.
# Assay: amyloid nucleation score (Sup35N fusion, yeast selection) (log enrichment); library NNK1; higher = more nucleation; inactive = no reads after selection
# In short: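 Psi-negative yeast expressed Sup35N fused to peptides of 20 random codons. They were induced 24 hours with 100 μM copper sulfate, grown 7 days at 30°C without adenine and uracil, and their plasmid inserts from input and output were Illumina-sequenced. The nucleation score is the DiMSum log enrichment of output over input reads, centred on the mode score of non-aggregating sequences. Sequences with under 100 input reads were excluded.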
row,Substance,amyloid nucleation score
1,KRYDLRLKMMTTPI,1.29 ± 0.41
2,KSAYVANRGCRRLYGVHNKM,-0.647 ± 0.71
3,KSFACYNKDQ,0.423 ± 0.99
4,KSKLMNKQFSRLTLVSTESR,3.86 ± 0.13
5,KSLVVACDVYSNALLRVMFR,-0.291 ± 0.26
6,KSPRFASTYPLSSSYSLRVI,-0.327 ± 0.28
7,KSRSRLPCTRSHTIEFVRMR,0.831 ± 0.56
8,KSSWSSAS,-0.076 ± 0.3
9,KTCSQSEKM,-0.562 ± 0.3
10,KTSNKWMIKRNYRAYGHCSV,-0.357 ± 0.37
11,KVCFPY,-1.03 ± 0.4
12,KVDLLA,-0.13 ± 0.56
13,KVGYLYEAIGGKDDL,-0.605 ± 1.1
14,KVHPYEMDENYNPSRCYSSS,-0.049 ± 0.48
15,KVLLR,0.725 ± 0.36
16,KVNFSSSLGCVN,0.713 ± 0.85
17,KVSENLPRMPANLLTI,0.09 ± 0.44
18,KVSPIMDEN,0.547 ± 0.37
19,KVSYCSSGYLTSLTWRFLLI,0.888 ± 0.28
20,KVSYRMRASPRSKILVIRKS,0.43 ± 0.72
21,KVYIIFVRGEDAFKLRGAAN,-0.529 ± 1.5
22,KWGLGFFDWKMKYHFRCYKC,0.033 ± 0.56

row,Substance,amyloid nucleation score
1,KWIRRRTDIFELSRLVWMGW,-0.694 ± 0.58
2,KWVDEECFDFMKGGF,-0.756 ± 0.73
3,KYFYMMTAYRRWRRDPYLGG,-0.54 ± 0.62
4,KYKDFLGSISDLDWII,-0.464 ± 1.4
5,KYMTDIIT,0.413 ± 0.2
6,KYRVSLNFRWRFRLMISHNG,-0.002 ± 0.4
7,KYYYWRRVPVCQKGDLF,0.095 ± 0.31
8,LAAST,0.311 ± 0.4
9,LAFKGAITPSDFGLNNRYRF,-0.037 ± 1.4
10,LAGGVHLRPHERKEFLD,inactive
11,LAHVFWRIDWMDKWGYNGDA,0.992 ± 0.26
12,LALMEEPLVLDNGSLDTKLS,0.579 ± 1.1
13,LASGRRPSQPGVRRVAKTTG,0.392 ± 0.34
14,LATAEASRNYVGYFGWSFMN,0.098 ± 1.1
15,LAVKEL,0.678 ± 0.54
16,LAWIGFRYRDGMKYGVHWGR,-0.522 ± 1.2
17,LAWSEYLMCLTRCHPIAV,0.414 ± 0.54
18,LCAEN,0.48 ± 0.52
19,LCDFKTSEVPSEGTFWSVLA,0.181 ± 0.51
20,LCFGYKLIAKECVCAGRTES,inactive
21,LCFMILNGGRQSQAQKDSYV,0.086 ± 0.4
22,LCGGWLMGAGRFDGR,0.862 ± 0.54

row,Substance,amyloid nucleation score
1,LCGSVRFRTGLECKQPSSCI,-1.02 ± 2.7
2,LCLGHRH,-0.818 ± 1.6
3,LCNKVWFAECQIHSRQG,-0.144 ± 0.83
4,LCRIKGHRFIQVDTGEAVWS,-0.629 ± 0.61
5,LCRILGSSPVHNLWLWGHGY,-0.363 ± 1.4
6,LCTFIVWKMPICPMWWGW,0.255 ± 0.2
7,LDCINRERYIHFMR,1.92 ± 0.5
8,LDHLVNDTVEILQYGAPSIH,0.733 ± 0.88
9,LDIVCLPKFVVWTDTV,-0.301 ± 0.56
10,LDLSNDGRFYKGREGAISCR,0.049 ± 0.31
11,LDLVTGL,1.1 ± 0.66
12,LDMECYYSIYRSESNVCMWI,1.31 ± 0.93
13,LDMTTTLLVSLESDG,0.04 ± 0.73
14,LDNRCKIRMVMMHSPRALRV,0.893 ± 0.81
15,LDRTVWH,0.757 ± 0.34
16,LDRYVRFEIRS,0.661 ± 0.56
17,LDVKSYAQVKRFSWSHSAFM,1.07 ± 0.4
18,LDWSMLRTELVIGILRSGRE,0.248 ± 0.52
19,LEAKSAGRVACQHGVALRVG,0.674 ± 0.47
20,LECSNSNLWCTPN,0.712 ± 0.69
21,LEMCLQDVIDGSGQGQNEWG,-0.074 ± 0.7
22,LEQFMTRYRSDIVYCCDSGS,inactive

row,Substance,amyloid nucleation score
1,LESHSNTINIGCKNFGCNRG,5.38 ± 0.073
2,LESQNHTFLRFIPKAALRIL,0.067 ± 0.47
3,LETRLVYLWENLPLAQTNVA,0.238 ± 0.48
4,LFALQGHGILSVHSFVRHWG,0.165 ± 1.1
5,LFCHPSFYINGMWSLGGSGG,-0.578 ± 0.66
6,LFCIERWMSNCFG,0.112 ± 0.75
7,LFCKSPCYFVMLADKMHIWG,5.07 ± 0.11
8,LFCTTSVDNKGPVRLPLVCV,-0.282 ± 1.7
9,LFDWWCFEKYLICRVGSLTF,-0.091 ± 0.51
10,LFFCGLGERG,inactive
11,LFFVSRG,-0.465 ± 1.6
12,LFGDLTNFQTFYT,inactive
13,LFIVSNFLWLIPKWTNSAKF,-1.66 ± 1.4
14,LFIYDLQLRHDYHQGYELES,0.544 ± 0.9
15,LFKNFEWMYSTMTHLSWIWL,-0.335 ± 0.21
16,LFKSPWGDDHSIST,0.434 ± 0.29
17,LFLFRSH,5.445 ± 0.048
18,LFLNMNPVLDTIIPFGWSSV,-0.128 ± 0.56
19,LFLNTNSRKYTKMDTILILS,-0.359 ± 0.4
20,LFLSWDSYPSLSKRTV,0.281 ± 0.42
21,LFNSYIAVGVKKTSSEVMQR,0.385 ± 0.55
